Patent publication US20130129701, “Methods and Compositions for Sequence Specific RNA Endonucleases” (published 2013)

Tests used:
PUF-R6(SYxxR) purified [1] = biological target: T1, PUF-R6(SYxxR) purified (Homo sapiens, UniProt Q14671 Q14671:828-1176, N1043S/Q1047R); assay: EMSA; 0.2 uM protein, 1 nM biotinylated RNA, 1 mM MgCl2, room temperature
T1 sequence: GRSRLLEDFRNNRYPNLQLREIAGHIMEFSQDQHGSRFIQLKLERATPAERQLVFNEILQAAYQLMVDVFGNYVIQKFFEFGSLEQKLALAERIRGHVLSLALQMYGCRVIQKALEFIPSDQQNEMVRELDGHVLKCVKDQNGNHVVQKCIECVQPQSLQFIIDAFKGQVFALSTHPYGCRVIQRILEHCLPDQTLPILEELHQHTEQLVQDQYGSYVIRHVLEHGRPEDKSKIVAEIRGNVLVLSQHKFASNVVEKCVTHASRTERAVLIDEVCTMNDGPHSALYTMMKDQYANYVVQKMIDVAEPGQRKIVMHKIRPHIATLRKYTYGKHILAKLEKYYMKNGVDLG
Method: Protein concentration was determined by Bradford assay. RNAs were generated by in vitro transcription and purified on denaturing gels. 50 pmol of RNAs were labeled at the 3′ end with biotinylated cytidine bisphosphate using T4 RNA ligase following manufacturer's directions (Thermo Scientific Pierce RNA 3′ End Biotinylation Kit). In each sample, 20 fmol of labeled RNA (1 nM) and 4 pmol of proteins (0.2 μM) were incubated in binding buffer (10 mM HEPES, pH 7.3, 20 mM KCl, 1 mM MgCl₂, 1 mM DTT, and 0.1 g/L tRNA) for 1 hour at room temperature. The binding reactions were separated by electrophoresis on 6% nondenaturing PAGE run with 1×TBE at 4° C., transferred to nylon membranes, and crosslinked to the membrane by UV. Biotin-labeled RNA was detected by chemiluminescence using the Thermo Scientific LightShift Chemiluminescent RNA EMSA Kit following manufacturer's directions.

PUF-R6(SYxxR) purified [2] = biological target: T1, PUF-R6(SYxxR) purified; assay: structure; PDB 2yjy
Method: Crystals of PUF-R6(SYxxR) mutant and C3 RNA (5′-[…]) were grown by sitting drop vapor diffusion. RNA oligonucleotide was obtained from Dharmacon (Lafayette, Colo.). The protein-RNA complex was prepared by mixing a 1:1.1 molar ratio of purified protein (3.5 mg/ml) and RNA in a buffer containing 20 mM Tris-HCl, pH 7.5; 100 mM NaCl; and 1 mM DTT. One μl of complex solution was added to 1 μl of a well solution containing 30% PEG 3350, 0.2M ammonium tartrate dibasic, and 0.1M bis-Tris, pH 5.5. Crystals were flash frozen after adding an equal volume of cryoprotectant solution (32% PEG 3350, 20% ethylene glycol) to the drop. Diffraction data were collected at the SER-CAT beamline ID-22, Advanced Photon Source at wavelength 1.0 Å and −180° C. All data sets were indexed, integrated, and scaled with the HKL2000 suite (21). The structure was determined by molecular replacement using the structure of human Pumilio1 (PDB ID: 1M8Y) as a search model with PHASER (22). Two complexes are present in the asymmetric unit. Iterative model building was performed with COOT (23), and the resulting models were refined with PHENIX (24). All Phi-Psi angles are within allowable regions of the Ramachandran plot. The atomic coordinates and structure factors have been deposited in the Protein Data Bank (PDB ID: 2yjy).

UGCAUAUA (ssRNA) [C3 RNA]: binds (PUF-R6(SYxxR) purified [1]).

AUUGCAUAUA (ssRNA) [C3 RNA crystallization 10-mer]: binds (PUF-R6(SYxxR) purified [2]).
